Experiment in all cases: fluorescence polarisation; 37 °C, after the 25 °C reading ramped over 7 min to 37 °C and 2 min incubation; unlabeled Rb^P against 1.5 nM TMR-E2F1^TD or 7.5 nM TMR-E7^LxCxE; 25 mM Tris pH 8.0, 200 mM NaCl, 1 mM DTT, 0.1% Tween-20; apparent Kd
Details in all cases: both partners purified
(Fluorescence polarisation rises when a labelled molecule tumbles more slowly, as on binding a larger partner.)

The target in one assay is T1, Rb^P S534R (human, UniProt P06400 380-788, S534R).
T1 construct: also called variant 23
T1 sequence (looked up): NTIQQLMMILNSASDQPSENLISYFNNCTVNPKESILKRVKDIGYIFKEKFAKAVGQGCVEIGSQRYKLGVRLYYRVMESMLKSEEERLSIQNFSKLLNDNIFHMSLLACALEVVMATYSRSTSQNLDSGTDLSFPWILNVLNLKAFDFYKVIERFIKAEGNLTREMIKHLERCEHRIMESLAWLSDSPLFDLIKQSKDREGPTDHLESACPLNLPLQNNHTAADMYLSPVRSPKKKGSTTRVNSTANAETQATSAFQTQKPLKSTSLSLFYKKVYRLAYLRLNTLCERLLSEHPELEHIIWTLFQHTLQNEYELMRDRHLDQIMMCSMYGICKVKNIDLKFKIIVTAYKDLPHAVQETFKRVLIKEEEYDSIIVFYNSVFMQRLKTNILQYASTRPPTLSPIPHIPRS

The next assay addresses T2, Rb^P T620M (human, UniProt P06400 380-788, T620M).
T2 construct: also called variant 40
T2 sequence (looked up): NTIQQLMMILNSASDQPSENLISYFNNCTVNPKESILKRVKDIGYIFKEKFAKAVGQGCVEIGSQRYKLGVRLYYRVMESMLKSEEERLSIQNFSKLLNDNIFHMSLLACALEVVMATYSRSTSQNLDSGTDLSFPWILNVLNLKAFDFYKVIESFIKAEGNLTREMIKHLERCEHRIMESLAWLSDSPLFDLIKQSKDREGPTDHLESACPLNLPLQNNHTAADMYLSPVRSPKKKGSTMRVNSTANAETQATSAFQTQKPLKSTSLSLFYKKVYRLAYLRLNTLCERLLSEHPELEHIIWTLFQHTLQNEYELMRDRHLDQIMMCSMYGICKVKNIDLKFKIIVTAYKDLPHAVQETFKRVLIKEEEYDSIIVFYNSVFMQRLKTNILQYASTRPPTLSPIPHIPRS

A further assay has as its target T3, Rb^P V654L (human, UniProt P06400 380-788, V654L).
T3 construct: also called variant 47
T3 sequence (looked up): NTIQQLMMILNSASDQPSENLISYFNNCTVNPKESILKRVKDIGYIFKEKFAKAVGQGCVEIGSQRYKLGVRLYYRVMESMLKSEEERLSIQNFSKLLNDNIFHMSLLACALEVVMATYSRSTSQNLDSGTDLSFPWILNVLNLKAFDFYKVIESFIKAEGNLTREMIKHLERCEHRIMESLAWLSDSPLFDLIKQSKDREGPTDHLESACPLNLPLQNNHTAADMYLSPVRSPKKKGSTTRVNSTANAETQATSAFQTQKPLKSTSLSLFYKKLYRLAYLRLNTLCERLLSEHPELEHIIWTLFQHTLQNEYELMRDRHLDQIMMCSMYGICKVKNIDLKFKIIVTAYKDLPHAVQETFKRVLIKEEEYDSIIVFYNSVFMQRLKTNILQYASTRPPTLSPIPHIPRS

For another assay, the target named is T4, Rb^P A490S (human, UniProt P06400 380-788, A490S).
T4 construct: also called variant 15
T4 sequence (looked up): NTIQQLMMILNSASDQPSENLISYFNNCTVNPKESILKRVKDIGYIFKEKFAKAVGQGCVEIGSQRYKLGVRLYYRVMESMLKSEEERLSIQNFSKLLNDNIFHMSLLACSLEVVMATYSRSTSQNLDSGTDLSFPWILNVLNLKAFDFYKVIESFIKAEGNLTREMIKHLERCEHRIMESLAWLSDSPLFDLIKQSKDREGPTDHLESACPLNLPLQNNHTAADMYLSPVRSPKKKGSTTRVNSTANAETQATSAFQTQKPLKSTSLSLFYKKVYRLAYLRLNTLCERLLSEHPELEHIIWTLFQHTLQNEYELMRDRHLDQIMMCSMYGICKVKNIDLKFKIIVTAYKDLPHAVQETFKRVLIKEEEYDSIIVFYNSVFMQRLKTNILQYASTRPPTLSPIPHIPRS

The next assay addresses T5, Rb^P I703V (human, UniProt P06400 380-788, I703V).
T5 construct: also called variant 65
T5 sequence (looked up): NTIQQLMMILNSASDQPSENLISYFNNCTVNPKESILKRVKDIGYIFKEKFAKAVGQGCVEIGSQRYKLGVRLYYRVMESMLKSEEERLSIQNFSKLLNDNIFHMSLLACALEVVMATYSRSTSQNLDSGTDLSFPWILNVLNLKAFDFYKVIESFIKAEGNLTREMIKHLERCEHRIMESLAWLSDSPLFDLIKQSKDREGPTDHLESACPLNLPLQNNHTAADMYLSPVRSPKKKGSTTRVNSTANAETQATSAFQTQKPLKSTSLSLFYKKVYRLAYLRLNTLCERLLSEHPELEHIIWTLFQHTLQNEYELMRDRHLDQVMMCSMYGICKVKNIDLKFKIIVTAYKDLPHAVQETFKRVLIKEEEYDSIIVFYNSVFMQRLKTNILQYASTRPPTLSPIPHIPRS

No end group written: not given here. TMR = tetramethyl rhodamine dye

B1: TMR-E2F1^TD, peptide of the E2F1 transactivation domain (peptide)
peptide: {TMR}-GEGIRDLFDCDFGDLTPLD
notes: also called E2F^TD; source: synthetic peptide, bought: GenScript
Take B1: the Kd is 18000 nM with Rb^P S534R; 59 nM with Rb^P T620M; 30 nM with Rb^P V654L; 29 nM with Rb^P A490S; 99 nM with Rb^P I703V.

B2: TMR-E7^LxCxE, LxCxE peptide of the E7 oncoprotein from HPV (peptide)
peptide: DLYCYEQLN
modifications: also: TMR label, position not given here
notes: source: synthetic peptide, bought: GenScript
In the case of B2, the Kd with Rb^P S534R came to 11 nM; in the assay with Rb^P T620M it was 15 nM; with Rb^P V654L, 21 nM; with Rb^P A490S, 15 nM; with Rb^P I703V it was 53 nM.

Source of the values: publication PMC11931385, “Structural and functional analysis of cancer-associated missense variants in the retinoblastoma protein pocket domain” (The Journal of Biological Chemistry, 2025).
